Results as given in patent publication US20230265215A1 (OMEROS, published 2023).

Experiments:
[1] = target: human MASP-2 (endogenous, in normal human serum) (human, UniProt O00187 16-686); assay: cell-based or functional assay
[2] = target: T1, cynomolgus monkey MASP-2 (endogenous, in cynomolgus monkey serum) (cynomolgus monkey, UniProt O00187 16-686 (human entry), limits assumed); assay: cell-based or functional assay
[3] = target: rabbit MASP-2 (endogenous, in rabbit serum) (rabbit); assay: cell-based or functional assay
[4] = target: T1, cynomolgus monkey MASP-2 (endogenous, …); assay: cell-based or functional assay; remark: listed apart in the source
[5] = target: mouse MASP-2 (endogenous, in mouse serum or hirudin plasma) (mouse, UniProt Q91WP0 20-685); assay: cell-based or functional assay
[6] = target: T2, MASP-1 (human, UniProt P48740 20-699, limits assumed); assay: solid phase ELISA, immobilized protease, mean apparent KD of two lots
T2 construct: Species read from 'Recombinant human MASP-2 or C1r, C1s, CFD, MASP-1 and MASP-3'
T2 sequence (looked up): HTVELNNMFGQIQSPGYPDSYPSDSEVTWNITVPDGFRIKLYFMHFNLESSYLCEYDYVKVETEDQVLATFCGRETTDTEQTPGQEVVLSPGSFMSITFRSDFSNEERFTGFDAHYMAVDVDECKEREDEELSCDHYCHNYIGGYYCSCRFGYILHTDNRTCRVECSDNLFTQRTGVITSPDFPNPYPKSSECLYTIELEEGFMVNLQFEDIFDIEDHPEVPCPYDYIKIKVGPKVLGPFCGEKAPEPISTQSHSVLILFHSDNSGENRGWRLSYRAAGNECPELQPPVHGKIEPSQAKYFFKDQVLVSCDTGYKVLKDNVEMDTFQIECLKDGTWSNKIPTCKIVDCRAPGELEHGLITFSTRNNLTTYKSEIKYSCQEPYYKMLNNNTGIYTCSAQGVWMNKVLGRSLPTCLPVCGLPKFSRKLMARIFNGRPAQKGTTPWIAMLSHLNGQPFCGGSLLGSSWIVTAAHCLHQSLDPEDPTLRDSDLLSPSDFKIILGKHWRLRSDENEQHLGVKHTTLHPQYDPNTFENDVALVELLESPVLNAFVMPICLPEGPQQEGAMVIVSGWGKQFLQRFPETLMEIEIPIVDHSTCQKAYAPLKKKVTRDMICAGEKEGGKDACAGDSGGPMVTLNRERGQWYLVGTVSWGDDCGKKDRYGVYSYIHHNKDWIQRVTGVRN
Source text: (§1) The apparent dissociation constant (KD) was estimated by nonlinear regression using a 4-parameter logistic model.
(§2) Fold selectivity calculated as KD(related serine protease)/mean KD(MASP-2).

[7] = target: T3, C1r (human, UniProt P00736 18-705, limits assumed); assay: as above
T3 construct: Species read from 'Recombinant human MASP-2 or C1r, C1s, CFD, MASP-1 and MASP-3'
T3 sequence (looked up): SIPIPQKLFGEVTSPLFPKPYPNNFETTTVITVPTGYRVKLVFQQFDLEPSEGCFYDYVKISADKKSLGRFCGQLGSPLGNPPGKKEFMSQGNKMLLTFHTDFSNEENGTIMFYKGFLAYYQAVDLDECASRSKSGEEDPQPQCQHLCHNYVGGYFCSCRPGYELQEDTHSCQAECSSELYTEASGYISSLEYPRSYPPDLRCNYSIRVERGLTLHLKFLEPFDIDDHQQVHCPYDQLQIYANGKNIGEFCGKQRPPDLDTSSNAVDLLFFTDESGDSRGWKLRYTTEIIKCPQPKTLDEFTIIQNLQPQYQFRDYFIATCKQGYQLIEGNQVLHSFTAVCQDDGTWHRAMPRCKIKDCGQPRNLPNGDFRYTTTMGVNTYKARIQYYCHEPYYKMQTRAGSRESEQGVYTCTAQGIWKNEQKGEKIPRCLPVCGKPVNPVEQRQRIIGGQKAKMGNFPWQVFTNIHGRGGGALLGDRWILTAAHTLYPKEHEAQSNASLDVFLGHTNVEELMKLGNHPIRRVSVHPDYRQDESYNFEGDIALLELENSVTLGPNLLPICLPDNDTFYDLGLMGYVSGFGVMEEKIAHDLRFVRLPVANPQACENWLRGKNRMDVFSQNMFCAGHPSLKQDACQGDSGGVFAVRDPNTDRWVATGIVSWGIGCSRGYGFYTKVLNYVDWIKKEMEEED
Source text: as §1, §2

[8] = target: T4, C1s (human, UniProt P09871 16-688, limits assumed); assay: as above
T4 construct: Species read from 'Recombinant human MASP-2 or C1r, C1s, CFD, MASP-1 and MASP-3'
T4 sequence (looked up): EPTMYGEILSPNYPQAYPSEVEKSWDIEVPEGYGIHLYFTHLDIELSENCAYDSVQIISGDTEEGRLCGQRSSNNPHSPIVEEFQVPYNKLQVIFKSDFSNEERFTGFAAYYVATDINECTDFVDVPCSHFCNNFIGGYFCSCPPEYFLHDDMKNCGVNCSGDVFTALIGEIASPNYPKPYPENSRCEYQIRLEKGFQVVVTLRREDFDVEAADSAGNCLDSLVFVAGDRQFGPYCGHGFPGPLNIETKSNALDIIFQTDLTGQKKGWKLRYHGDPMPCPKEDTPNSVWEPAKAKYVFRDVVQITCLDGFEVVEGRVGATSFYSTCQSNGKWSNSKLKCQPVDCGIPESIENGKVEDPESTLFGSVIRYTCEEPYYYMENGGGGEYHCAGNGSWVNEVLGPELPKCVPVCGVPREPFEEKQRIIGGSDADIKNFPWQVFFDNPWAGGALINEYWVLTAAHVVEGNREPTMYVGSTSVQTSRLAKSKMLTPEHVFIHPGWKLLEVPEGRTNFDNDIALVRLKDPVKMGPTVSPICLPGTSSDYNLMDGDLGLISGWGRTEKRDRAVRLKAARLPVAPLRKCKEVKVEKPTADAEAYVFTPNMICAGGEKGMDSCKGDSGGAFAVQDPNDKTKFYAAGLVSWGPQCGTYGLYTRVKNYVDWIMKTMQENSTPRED
Source text: as §1, §2

[9] = target: T5, CFD (human, UniProt P00746 26-253, limits assumed); assay: as above
T5 construct: Species read from 'Recombinant human MASP-2 or C1r, C1s, CFD, MASP-1 and MASP-3'; also called factor D; complement factor D
Source text: as §1, §2

Chain of human MASP-2 (endogenous, in normal human serum) (O00187 16-686 limits assumed): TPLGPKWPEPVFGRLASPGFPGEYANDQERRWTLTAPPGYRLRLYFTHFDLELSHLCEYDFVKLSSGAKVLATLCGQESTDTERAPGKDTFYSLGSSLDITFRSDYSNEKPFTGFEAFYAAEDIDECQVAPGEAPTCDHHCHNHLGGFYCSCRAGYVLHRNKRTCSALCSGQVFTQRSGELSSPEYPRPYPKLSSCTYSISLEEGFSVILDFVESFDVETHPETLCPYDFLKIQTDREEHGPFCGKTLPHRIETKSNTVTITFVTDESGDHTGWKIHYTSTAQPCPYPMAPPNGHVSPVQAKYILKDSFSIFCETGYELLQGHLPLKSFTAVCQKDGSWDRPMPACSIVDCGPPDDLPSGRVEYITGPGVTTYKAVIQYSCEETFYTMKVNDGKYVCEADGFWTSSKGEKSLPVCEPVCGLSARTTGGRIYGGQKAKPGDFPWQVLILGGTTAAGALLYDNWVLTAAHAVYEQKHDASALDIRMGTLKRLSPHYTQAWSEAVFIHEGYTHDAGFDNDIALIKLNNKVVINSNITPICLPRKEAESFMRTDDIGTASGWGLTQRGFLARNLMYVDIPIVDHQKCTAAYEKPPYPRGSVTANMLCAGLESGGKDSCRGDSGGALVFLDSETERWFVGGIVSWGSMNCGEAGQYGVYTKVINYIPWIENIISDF
T1 sequence (O00187 other isoform, or with tags, fused parts or gaps limits assumed): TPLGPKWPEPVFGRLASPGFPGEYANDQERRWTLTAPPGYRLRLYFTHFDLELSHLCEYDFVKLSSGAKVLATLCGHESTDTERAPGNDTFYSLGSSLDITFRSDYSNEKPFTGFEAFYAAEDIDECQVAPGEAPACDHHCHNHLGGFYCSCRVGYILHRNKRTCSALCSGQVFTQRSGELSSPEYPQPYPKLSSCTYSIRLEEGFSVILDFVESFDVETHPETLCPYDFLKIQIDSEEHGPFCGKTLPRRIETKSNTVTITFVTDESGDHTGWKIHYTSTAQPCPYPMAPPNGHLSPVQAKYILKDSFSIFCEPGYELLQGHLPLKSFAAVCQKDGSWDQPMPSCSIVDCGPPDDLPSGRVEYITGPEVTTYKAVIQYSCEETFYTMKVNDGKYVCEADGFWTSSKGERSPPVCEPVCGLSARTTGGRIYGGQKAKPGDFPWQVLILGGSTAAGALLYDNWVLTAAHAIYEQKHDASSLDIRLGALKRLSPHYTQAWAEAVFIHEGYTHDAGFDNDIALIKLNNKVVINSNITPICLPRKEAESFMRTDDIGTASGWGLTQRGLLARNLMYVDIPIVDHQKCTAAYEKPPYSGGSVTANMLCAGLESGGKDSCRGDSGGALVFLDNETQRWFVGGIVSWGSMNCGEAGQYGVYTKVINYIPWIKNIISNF
Chain of mouse MASP-2 (endogenous, in mouse serum or hirudin plasma) (Q91WP0 20-685 limits assumed): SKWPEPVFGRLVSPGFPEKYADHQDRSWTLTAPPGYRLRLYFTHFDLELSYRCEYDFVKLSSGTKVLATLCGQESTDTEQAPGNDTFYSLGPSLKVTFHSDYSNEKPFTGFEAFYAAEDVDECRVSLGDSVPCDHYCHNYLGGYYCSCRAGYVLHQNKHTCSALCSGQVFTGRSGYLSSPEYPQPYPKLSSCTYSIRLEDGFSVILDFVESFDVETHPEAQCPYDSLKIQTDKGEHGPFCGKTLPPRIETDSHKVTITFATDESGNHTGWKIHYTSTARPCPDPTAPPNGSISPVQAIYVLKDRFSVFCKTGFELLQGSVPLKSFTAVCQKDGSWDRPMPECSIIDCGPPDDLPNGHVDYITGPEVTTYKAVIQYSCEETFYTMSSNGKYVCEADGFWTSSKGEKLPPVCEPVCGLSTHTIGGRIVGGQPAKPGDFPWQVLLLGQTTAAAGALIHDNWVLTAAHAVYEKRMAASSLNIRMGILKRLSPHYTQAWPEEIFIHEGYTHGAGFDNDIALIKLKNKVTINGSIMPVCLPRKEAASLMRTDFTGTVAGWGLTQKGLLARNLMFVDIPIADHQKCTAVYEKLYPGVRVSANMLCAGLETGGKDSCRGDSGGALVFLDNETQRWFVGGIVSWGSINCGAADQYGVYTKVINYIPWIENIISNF
T5 sequence (P00746 26-253 limits assumed): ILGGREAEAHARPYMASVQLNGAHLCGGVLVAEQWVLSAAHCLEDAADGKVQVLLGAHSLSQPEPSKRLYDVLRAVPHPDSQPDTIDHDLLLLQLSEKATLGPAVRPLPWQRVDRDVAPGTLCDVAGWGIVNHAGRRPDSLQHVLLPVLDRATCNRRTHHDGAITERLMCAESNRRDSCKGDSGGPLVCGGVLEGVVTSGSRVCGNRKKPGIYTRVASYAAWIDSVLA

lectin-dependent C4 activation in 50% human serum, IC50, Experiment 1 [1]: 0.89 nM | lectin-dependent C4 activation in 50% human serum, IC50, Experiment 2 [1]: 0.86 nM | lectin-dependent C4 activation in 50% human serum, IC50, Experiment 3 [1]: 1.52 nM | lectin-dependent C4 activation in 50% human serum, IC50, MEAN [1]: 1.09 nM | lectin-dependent C4 activation in 50% cynomolgus monkey serum, IC50, Experiment 1 [2]: 42.8 nM | lectin-dependent C4 activation in 50% cynomolgus monkey serum, IC50, Experiment 2 [2]: 44 nM | lectin-dependent C4 activation in 50% cynomolgus monkey serum, IC50, Experiment 3 [2]: 45.5 nM | lectin-dependent C4 activation in 50% cynomolgus monkey serum, IC50, MEAN [2]: 44.1 nM | lectin-dependent C4 activation in 50% rabbit serum, IC50, Experiment 1 [3]: > 500 nM | lectin-dependent C4 activation in 50% rabbit serum, IC50, Experiment 2 [3]: > 500 nM | lectin-dependent C4 activation in 50% rabbit serum, IC50, Experiment 3 [3]: > 500 nM | Ratio (IC50-Query/IC50-Human), lectin-dependent C4 activation [4]: 40.5 fold | Ratio (IC50-Query/IC50-Human), lectin-dependent C4 activation [5]: 10.9 fold | Kd [6]: > 100 µg/mL | Kd [7]: > 100 µg/mL | Kd [8]: > 100 µg/mL | Kd [9]: > 100 µg/mL
B1: mAb OMS858 (humanized anti-MASP-2 antibody) (antibody, V domains shown)
VH: QVQLVQSGAEVKKPGASVKVSCKASGYTFTNHHMHWLRQAPGQGLEWIGDIDASDSETHYIEKFKDRATLTIDKSSSTAYMELSSLRSEDTAVYYCARGDITTTLRYFDVWGQGTLVTVSS
VL: DIQLTQSPSSLSASVGDRVTITCSASSSVRYMYWYQQKPGKAPKLLIYDTSNLASGVPSRFSGSGSGTDNTLTISSLQPEDFATYYCQQWSSYPLTFGQGTKVEIKR
notes: also called antibody OMS858; biotinylated OMS858
